Assay results published in IntAct's records for PubMed 31147388.

B1: Protein pid-1 (Caenorhabditis elegans), Q19541 (parent)
chain: MSAKREFSHITLASTPFKKRIDQNSLKTDSDIEKDTNIAHKCAERFNYNTNLHRKVTLSDRFELAALGYEMKAKPRTIIEKHNDCDEFHFIYRKEKKNDYGTGSPLSAGLSLSNPLPAGRGFLSPAIQNTSNQFTFSGSPRITPQKHTPVSANHKPARSIFDDIPSNIA
partner: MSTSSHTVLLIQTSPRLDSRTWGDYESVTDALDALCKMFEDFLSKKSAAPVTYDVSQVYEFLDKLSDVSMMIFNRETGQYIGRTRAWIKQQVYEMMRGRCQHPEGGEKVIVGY
B2: Protein tost-1 (Caenorhabditis elegans), Q18490 (parent)
chain: MTTAIQYQVIPLADREHSNKVASILENKYKTATNKRITLNERFGVLEKGYTIQATEPETVKNDSDVFFVVHDRNLNSKKEFVENYLAKNPIVNSPEKVFEEEDKENAPTKKAVLKPSSTDEKKLTSSDIYIQEITRSILQSV
partner: B1 partner

Variants of: B1
Conditions: with erh2_caeel erh-2, Q20057
R61C was tested, and the “effect of a mutation on the interaction” value was “decreasing interaction strength”.

Variants of: B1
Conditions: with erh2_caeel erh-2, Q20057
Remark: another data set of the same source
With R61C the “effect of a mutation on the interaction” value was “disrupting interaction strength”.

Variants of: B2
Conditions: with erh2_caeel erh-2, Q20057
In the case of R42C, the “effect of a mutation on the interaction” value is reported as “disrupting interaction strength”.
